Results on 20 molecules are retold here after patent US20140370037A1 (published 2014).

Residue numbers refer to the chain shown, from its start.

For this test, the target named is T1, human DLL3 antigen (human, UniProt Q9NYJ7 27-492, limits assumed).
T1 construct: also called immobilized human DLL3; recombinant human DLL3
T1 sequence (looked up): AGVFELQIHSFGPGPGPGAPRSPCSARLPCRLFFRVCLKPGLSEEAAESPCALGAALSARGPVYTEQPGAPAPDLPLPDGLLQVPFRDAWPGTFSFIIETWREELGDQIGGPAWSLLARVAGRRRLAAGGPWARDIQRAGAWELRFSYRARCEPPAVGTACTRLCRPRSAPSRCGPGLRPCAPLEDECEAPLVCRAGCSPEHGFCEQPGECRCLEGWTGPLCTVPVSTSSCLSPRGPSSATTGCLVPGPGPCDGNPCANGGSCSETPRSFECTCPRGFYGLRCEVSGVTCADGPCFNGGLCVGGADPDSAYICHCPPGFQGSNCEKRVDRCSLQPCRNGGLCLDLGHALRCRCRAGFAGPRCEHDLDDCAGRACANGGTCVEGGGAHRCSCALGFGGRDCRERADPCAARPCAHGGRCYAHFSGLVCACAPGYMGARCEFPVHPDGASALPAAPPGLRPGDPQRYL
Briefly: ELISA or flow cytometry screen. Background: An ELISA detects its analyte on a solid surface through an enzyme-linked reagent.

B1: SC16.65 (antibody, V domains shown)
VH: QVTLKESGPGILQPSQTLSLTCSFSGFSLSTSGMGVGWIRQPSGKGLEWLALIWWDDVKRYNPALKSRLTISKDASSSQVFLKIASVDTADTATYYCARIASYDYDVVYAMDYWGQGTSVSVSS
VL: QIVLTQSPALMSASPGEKVTMTCSVTSSVSYMYWYQQKPRSSPKPWIYLTSNLASGVPARFSGSGSGTSYSLTISSVEAEDAATYYCQQWRNNPFTFGSGTKVEIK
notes: murine mAb
B1: the binding result is reported as “binds”.

B2: SC16.57 (antibody, V domains shown)
VH: EVKLVESGGDLVKPGGSLKLSCAASGFAFSSYDMSWVRQTPEKRLEWVATISSGGSYTYYPDSVKGRFTISRDNVRDTLYLQMSSLRSEDTALYYCARQAIGTYFDYWGQGTTLTVSS
VL: DIVMTQSHKFMSISVGDRVSITCKASQDVSIFVAWYQQKPGQSPKLLIYSASYRYTGVPDRFTGSGSGTDFIFTISSVQAEDLAVYYCQQHYGTPFTFGSGTKLKIR
notes: murine mAb
Take B2: the binding result is listed as “binds”.

B3: SC16.52 (antibody, V domains shown)
VH: QVQLKESGPGLVAPSQSLSITCAVSGFSLTSFAIHWFRKPPGKGLEWLGVIWTGGTTNYNSALMSRLSISKDNSKSQVFLKMNSLQTDDTAMYYCARDDYDNNYAMDYWGQGTSVTVSS
VL: DIQMIQSPSSMFASLGDRVSLSCRASQGIRGTLDWYQQKPNGTIKLLIYSTSNLNSGVPSRFSGSGSGSDYSLTISSLESEDFADYYCLQRNAYPLTFGAGTKLELK
notes: murine mAb
As for B3, the binding result is given as “binds”.

B4: SC16.73 (antibody, V domains shown)
VH: QVQLQQSGAELMKPGASVKISCKANGYTFSSYWIEWLRQRPGHGLEWIGEILPGSDNSNYNEKFKGKATFTADTSSNTAYMQLSSLTSEESAVYYCTRGLRRDGSYYYVMEHWGQGTSVTVSS
VL: DIQMTQSPSSLSASLGERVSLTCRASQDIGYSLNWLQQEPDGTIKRLIYATSSLDSGVPKRFSGSRSGSDYSLTISSLESEDFVDYYCLQYASSPWTFGGGTKLEIK
notes: murine mAb
Take B4: the binding result was “binds”.

B5: SC16.63 (antibody, V domains shown)
VH: QVQLQQSGTELLRPGASVKISCKATGYTFSSYWMEWVKQRPGHGLEWIGEILPGSGTTQYNEKFKGKATFTADTSSNTAYMHLSSLTSEDSAVYYCARGTNSLWGQGTLVTVSA
VL: QIVLTQSPAIMSASPGEKVTMTCSASSSVSYMYWYQQKSGTSPKRWIYDTSKLASGVPARFSGSGSGTSYSLTISSMEAEDAATYYCQQWSSNPYTFGGGTKLEIK
notes: murine mAb
With B5, the binding result is listed as “binds”.

B6: SC16.7 (antibody, V domains shown)
VH: EVQLQQSGPELVKPGASVKISCKASGYSFTGYKMHWVKQSHVKSLEWIGRINPYNGATSYNQNFKDKATLTVDKSSSTAYMDLHSLTSEDSAVYFCARGDYRYDWFAYWGQGTLVTVSA
VL: NIMMTQSPSSLAVSAGEKVTMSCKSSQSVLYSSNQKNYLAWYQQKPGQSPKLLIYWASTRESGVPDRFTGSGSGTDFTLTISTVQVEDLAVYYCHQYLSSWTFGGGTKLEIK
notes: murine mAb
On to B6, for which the binding result is “binds”.

B7: SC16.79 (antibody, V domains shown)
VH: EVQLQQSGPELVKPGASVKISCKTSGYTFTEYTMHWVKQSHGKSLEWIGGINPNNGGTSYNQKFKGKATLTVDKSSSTAYMELRSLTSEDSAVYYCARGPAWFAYWGQGTLVTVSA
VL: DIVMSQSPSSLAVSAGEKVTMSCKSSQSLLNSRTRKNYLAWYQQKPGQSPKLLIYWASTRESGVPDRFTGSGSGTDFTLTISSVQAEDLAVYYCKQSYNLYTFGGGTKLKIKR
notes: murine mAb
With B7, the binding result was “binds”.

B8: SC16.47 (antibody, V domains shown)
VH: EVQLQQSGPELVKPGASVKISCKASGYSFSRFYMHWVKQSPENSLEWIGEINPSTGGTSYNQKFKGKATLTVDKSSSTAYMQLKSLTSEESAVYYCTRGYGSNCYFDVWGAGTTVTVST
VL: DVVLTQSPLSLPVNIGDQASISCKSTKSLLNSDGFTYLDWYLQRPGQSPQFLIYLVSNRFSGVPDRFSGSGSGTDFTLKISRVEAEDLGVYYCFQSNYLPLTFGAGTKLELR
notes: murine mAb
With B8, the binding result is on record as “binds”.

B9: SC16.61 (antibody, V domains shown)
VH: EVLLQRSGPDLVKPGASVTIPCKASGYTFTDYNMDWVKQSHGKSLEWIGNINTYNGGTIYNQKFKGKATLTVDKPSSTAYMELRSLTSEDTAVYYCARRLRYGGHYFDYWGQGTALTVSS
VL: DIVMTQSTSSLAMSVGQKVTMSCKSSQSLLNSSNQKNYLAWYQQEPGQSPKLLVSFASTRESGVPDRFTGSGSGTDFTLTISGVQAEDLAVYYCQQHYSIPLTFGAGTKLELK
notes: murine mAb
B9: the binding result is listed as “binds”.

B10: SC16.84 (antibody, V domains shown)
VH: EVQLQQSGPELVKPGASMKISCKASGYSFTGYTMNWVKQSHGKNLEWIGLINPYNGGTTYNQKFKGKATLTVDKSSSTAYMELLSLTSEDSAVYYCALGYYGNYRRYFDVWGAGTTVTVSS
VL: DIQMTQSPSSLSASLGGKVTITCKASQDIKKYIAWYQHKPGKGPRLLIHYTSTLEPGIPSRFSGSGSGRDYSFSISNLEPEDIATYYCLQYDILWTFGGGTKLEIK
notes: murine mAb
Turning to B10, the binding result is recorded as “binds”.

B11: SC16.72 (antibody, V domains shown)
VH: EVQLQQSGPELVKPGASVKMSCKASGYTFTSYVMHWVKQKPGQGLEWIGYINPYNDGTKYNEKFKGKATLTSDKSSSTAYMELSSLTSEDSAVYYCARLRSRAMDYWGQGTSVTVSS
VL: ENVLTQSPAIMSASLGEKVTMSCRASSSVNYMSWYQQKSDASPKLWIYYTSNLAPGVPARFSGSGSGNSYSLTISSMEGEDAATYYCQQFTSSPYTFGGGTKLEIKR
notes: murine mAb
As for B11, the binding result was “binds”.

B12: SC16.55 (antibody, V domains shown)
VH: EVQLVESGGGLVQPKGSLKLSCAVSAFTFTTYAMNWVRQAPGKGLEWVARIRNKSNNYATYYADSVKDRFTISRDDSQSMLYLQMNNLKIEDTAMYYCVFYYDYVYWGQGTLVTVSA
VL: DIKMTQSPSSMYASLGERVTITCKASQDINSYLNWFQQKPGKSPKTLIYRANRLVDGVPSRFSGSGSGQDYSLTISSLEYEDMGIYYCLQYDEFPYTFGGGTKLEIKR
notes: murine mAb
On to B12, for which the binding result is “binds”.

B13: SC16.67 (antibody, V domains shown)
VH: B12 VH with S7T
VL: QAVVTQESALTTSPGETVTLTCRSSTGAVTTSNYANWIQEKPDHLFTGLIGGTNNRAPGVPARFSGSLIGDKAALTITGAQTEDEAIYFCGLWYSNHLVFGGGTKLTVL
notes: murine mAb
As for B13, the binding result is reported as “binds”.

B14: SC16.62 (antibody, V domains shown)
VH: EVMLVESGGDLVKPGGSLKLSCAASGFTFSSYAMSWVRQTPEKRLEWVAYISGGGDHIYYPDSVRGRFTISRDNAKDTLYLQMSSLRSEDTALYDCARVRDWYFDVWGAGTTVTVSS
VL: B12 VL with Y32F, N34S, Q38R, S63T, D70E, Y71F, M83L
notes: murine mAb
B14: the binding result is recorded as “binds”.

B15: SC16.58 (antibody, V domains shown)
VH: DVQLVESGGGLVQPGGSRKLSCAASGFTFSSFGMHWVRQAPEKGLEWVAYISSGSSNIYYADTVKGRFTISRDNPKNTLFLQMTSLRSEDTAMYYCARGYYGNYDAMDYWGQGTSVTVSS
VL: DIQMTQSPASLSSSVGETVTITCRASENIYSYLAWYQQKQGKSPQLLVYNAKTLAEGVPSRFSGSGSGTQFSLKINSLQPEDFGTYYCQHHYDSPLTFGAGTKLELR
notes: murine mAb
Regarding B15, the binding result is “binds”.

B16: SC16.81 (antibody, V domains shown)
VH: QVQLKESGPVLVAPSQSLSITCTVSGFSLTSYGVHWVRQPPGKGLEWLGVIWAGGSTNYNSALMSRLSISKDNSKSQVFLKMNSLQTDDTAMYYCAKQGNFYAMDYWGQGTSVTVSS
VL: QIVLTQSPAIMSASLGERVTLTCTASSSVSSSYLHWYQQKPGSSPKLWIYSTSNLASGVPTRFSGSGSGTSYSLRISSMEAEDAATYYCHQYNRSPLTFGAGTKLELK
notes: murine mAb
As for B16, the binding result is recorded as “binds”.

B17: SC16.80 (antibody, V domains shown)
VH: EVQLQQSGPELVKPGGSKKISCKASGYSFTGYSMNWVKQSHGKNLEWIGLINPYSGGTIYNQKFKGKATLTVDKSSSTAYMELLSLTSEDSAVYYCARRSDYPLVYWGQGTLVTVSA
VL: ETTVTQSPASLSMAIGEKVTIRCITSTDIDDDMIWYQQKPGEPPKLLISEGNTLRPGVPSRFSSSGYGTDFVFTIENMLSEDVADYYCLKRDDLPYTFGGGTQVEIKR
notes: murine mAb
As to B17, the binding result was “binds”.

B18: SC16.56 (antibody, V domains shown)
VH: QIQLVQSGPELKKPGETVKISCKASGYTFTNYGMNWVKQAPGKGLKWMAWINTYTGEPTYADDFKGRFAFSLETSASTASLQIINLKNEDTATYFCARIGDSSPSDYWGQGTTLTVSS
VL: SIVMTQTPKFLLVSAGDRVTITCKASQSVSNDVVWYQQKPGQSPKLLIYYASNRYTGVPDRFAGSGYGTDFSFTISTVQAEDLAVYFCQQDYTSPWTFGGGTKLEIR
notes: murine mAb; also called anti-human/mouse DLL3 (SC16.56)
Consider B18, for which the binding result is listed as “binds”.

B19: SC16.49 (antibody, V domains shown)
VH: QVQLQQSGPELVKPGTLVKISCKASGYTFTSYDINWVKQRPGQGLEWIGWIYPGDGNTKYSEKFKGKATLTADKSSSTAYMQLTSLTSENSAVYFCARDYDYPFAYWGQGTLVTVSA
VL: DIKMTQSPSSMYASLGERVTITCKASQDINSYLSWFQQKPGKSPKTLIYRANRLVDGVPSRFSGSGSGQDYSLTITSLEYEDMGIYYCLQYDEFPLTFGAGTKLELK
notes: murine mAb
Consider B19, for which the binding result is listed as “binds”.

B20: SC16.78 (antibody, V domains shown)
VH: EVKLVESGGGLVKPGGSLKLSCAASGFTFGRYVMSWVRQTPEKKLEWVASITSGGTTYYPDSVKGRFTISRDNARNILYLQMSSLRSEDTAMYYCARVYYHYDDIFAYWGQGTLVTVSA
VL: B19 VL with K42R, T76S, E79D, L96F, A100S, L106I
notes: murine mAb
On to B20, for which the binding result is “binds”.
